# Tests used:
# [1] = target: E. coli F-ATPase subunit b (cysteine-free F-ATPase) (E. coli) (UniProt P0ABA0); experiment: cryo-EM structure; purified cysteine-free E. coli F-ATPase in digitonin at 3.58 μM, no nucleotides added; three rotational states at 6.9, 7.8 and 8.5 Å; models built by docking crystal, NMR and homology models, side chains pruned to Cα
# [2] = target: E. coli F-ATPase subunit c (cysteine-free F-ATPase) (E. coli) (UniProt P68699); experiment: as above
Substance,stoichiometry N [1],stoichiometry N [2]
E. coli F-ATPase subunit b (cysteine-free F-ATPase) (from UniProt P0ABA0 2-156) (natural protein),2,–
E. coli F-ATPase subunit c (cysteine-free F-ATPase) (from UniProt P68699 1-79) (natural protein),–,10

# — publication PMC5214741
